The values that follow come from patent US20230104578A1 (ADRENOMED, published 2023).

Assay [1] deals with T1, human recombinant adrenomedullin receptor (CRLR+RAMP3) (human). Kind of assay: cell-based or functional assay.
The target in assay [2] is T1, human recombinant adrenomedullin …. Kind of assay: cell-based or functional assay. This is another data set of the same source.

Read-outs that look alike come from different tables or passages of the source. Ends that are not written are not given here.

T1 sequence (Q16602 whole entry, chain 1 of 2): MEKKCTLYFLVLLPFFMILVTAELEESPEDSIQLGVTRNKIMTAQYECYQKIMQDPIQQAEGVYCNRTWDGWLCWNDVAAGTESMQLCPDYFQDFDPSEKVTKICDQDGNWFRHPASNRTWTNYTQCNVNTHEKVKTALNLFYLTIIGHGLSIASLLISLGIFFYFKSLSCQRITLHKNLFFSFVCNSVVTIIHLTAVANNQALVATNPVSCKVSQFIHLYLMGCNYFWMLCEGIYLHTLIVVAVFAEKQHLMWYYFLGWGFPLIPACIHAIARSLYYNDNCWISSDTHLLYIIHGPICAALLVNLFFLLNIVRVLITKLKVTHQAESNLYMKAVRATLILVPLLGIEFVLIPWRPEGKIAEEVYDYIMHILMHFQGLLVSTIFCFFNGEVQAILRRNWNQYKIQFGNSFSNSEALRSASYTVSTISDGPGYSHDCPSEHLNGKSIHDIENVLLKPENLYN
T1 sequence (O60896 whole entry, chain 2 of 2, further chain): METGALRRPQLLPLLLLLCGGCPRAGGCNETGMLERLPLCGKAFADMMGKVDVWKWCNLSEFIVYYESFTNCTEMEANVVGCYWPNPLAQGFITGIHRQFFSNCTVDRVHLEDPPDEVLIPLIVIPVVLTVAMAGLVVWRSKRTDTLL

B1: Murine ADM 1-50 (peptide)
peptide: YRQSMNQGSRSNGCRFGTCTFQKLAHQIYQLTDKDKDGMAPRNKISPQGY-NH2
modifications: ends and bridges not checked
Take B1: the “EC50 (read off the curve); cAMP (HTRF), % activation” value in assay [1] is around 80 pM.

B2: mature human Adrenomedullin (amino acids 1-52) (peptide)
peptide: YRQSMNNFQGLRSFGCRFGTCTVQKLAHQIYQFTDKDKDNVAPRSKISPQGY-NH2
modifications: ends and bridges not checked
For B2, the “EC50 (read off the curve); cAMP (HTRF), % activation” value in assay [2] is around 1000 pM.
